Our source for the self-cleavage values is the RNAGym collection of RNA variant scans (doi:10.7554/elife.90254).

B1: OR4K15 (parent)
chain: GUUAACGGUCAUAGGCCAUGGAAACUAGGAGCACCAUUUCGCUGCCAGUGAAGAAAUGAACAAAGAAAAUCUGGGCCAGGCAGGCAUCAAAAGAAAUAGUCUUGCGCUCAACCAGAAAGUCUGUAAUCAUUUUAAGGGUA

The series covers variants of B1. Briefly: self-cleavage, relative activity (ratio to wild type); higher = more cleavage; in vitro, sequencing; the parent is a self-cleaving ribozyme.
As for GUUAACGGUCAUAGGCCAUGGAAACUAGGAGCACCAUUUCGCUGCCAGUGAAGAAAUGAACAAGGAAAAUCUGGGCCAGGCAGGCAUCAAAAGAAAUAGUCUCGCGCUCAACCAGAAAGUCUGUAAUCAUUUUAAGGGUA, the self-cleavage came out at 1.2.

For the variant GUUAACGGUCAUAGGCCAUGGAAACUAGGAGCACCAUUUCGCUGCCAGUGAAGAAAUGAACAAUGAAAAUCUGGGCCAGGCUGGCAUCAAAAGAAAUAGUCUUGCGCUCAACCAGAAAGUCUGUAAUCAUUUUAAGGGUA, the self-cleavage came out at 0.19. As for GUUAACGGUCAUAGGCCAUGGAAACUAGGAGCACCAUUUCGCUGCCAGUGAAGAAAUGAACAAGGAAAAUCUGGGCCAGGCAGGCAUCAAAAGAAAUCGUCUUGCGCUCAACCAGAAAGUCUGUAAUCAUUUUAAGGGUA, the figure is 1.73; as for GUUAACGGUCAUAGGCCAUGGAAACUAGGAGCACCAUUUCGCUGCCAGUGAAGAAAUGAACAAGGAAAAUCUGGGCCAGGCAGGCAUCAAAAGAAAUAGUCCUGCGCUCAACCAGAAAGUCUGUAAUCAUUUUAAGGGUA, 2.06; as for GUUAACGGUCAUAGGCCAUGGAAACUAGGAGCACCAUUUCGCUGCCAGUGAAGAAAUGAACAAGGAAAAUCUGGGCCAGGCAGGCAUCAAAAGAAAUAGUCUUGCGCUCAACCAGAAAGUCUGUAAUCAUUUUGAGGGUA, 1.41.

For GUUAACGGUCAUAGGCCAUGGAAACUAGGAGCACCAUUUCGCUGCCAGUGAAGAAAUGAACAAGGAAAAUCUGGGCCAGGCAGGCAUCAAAAGAAAUAGUCUUGCGCACAACCAGAAAGUCUGUAAUCAUUUUAAGGGUA, the self-cleavage was 0.01. As for GUUAACGGUCAUAGGCCAUGGAAACUAGGAGCACCAUUUCGCUGCCAGUGAAGAAAUGAACAAGGAAAAUCUGGGCCAGGCAGGCAUCAAAAGAAAUAGUCUUGCGCUCAACCAGAAAGUCUGUAACCAUUUUAAGGGUA, the figure is 0.86; as for GUUAACGGUCAUAGGCCAUGGAAACUAGGAGCACCAUUUCGCUGCCAGUGAAGAAAUGAACAAGGAAAAUCUGGGCCAGGCAGGCAUCAAAAGAAAUAGUUUUGCGCUCAACCAGAAAGUCUGUAAUCAUUUUAAGGGUA, 0.42; as for GUUAACGGUCAUAGGCCAUGGAAACUAGGAGCACCAUUUCGCUGCCAGUGAAGAAAUGAACAAGGAAAAUCUGGGCCAGGCAGGCAUCAAAAGAAAUAGUCUUGCGCUCAACCAGAAAGUCUAUAAUCAUUUUAAGGGUA, 1.66. As for GUUAACGGUCAUAGGCCAUGGAAACUAGGAGCACCAUUUCGCUGCCAGUGAAGAAAUGAACAAGGAAAAUCUGGGCCAGGCAGGCAUCAAAAGAAAUAGUCUUGCGCUCAACCAGAAAGUCUGUAAUCAUUUUAAGGGUU, the figure is 1.37. As for GUUAACGGUCAUAGGCCAUGGAAACUAGGAGCACCAUUUCGCUGCCAGUGAAGAAAUGAACAAGGAAAAUCUGGGCCAGGCAGGCAUCAAAAGAAAUAGUCUUGCGCUCAACCAGAAAGUCUGUAAUCACUUUAAGGGUA, the figure is 0.45; as for GUUAACGGUCAUAGGCCAUGGAAACUAGGAGCACCAUUUCGCUGCCAGUGAAGAAAUGAACAAGGAAAAUCUGGGCCAGGCAGGCAUCAAAAGAAAUAGUCUUGCGCUCUACCAGAAAGUCUGUAAUCAUUUUAAGGGUA, 1.1. With GUUAACGGUCAUAGGCCAUGGAAACUAGGAGCACCAUUUCGCUGCCAGUGAAGAAAUGAACAAUGAAAAUCUGGGCCAGGCAGGCAUCAAAAGAAAUAGUCUUGCGCUCAACCAGAAAGUCUGUAAUCAUUUUAAGGGUA, the self-cleavage came out at 1.23. With GUUAACGGUCAUAGGCCAUGGAAACUAGGAGCACCAUUUCGCUGCCAGUGAAGAAAUGAACAAGGAAAAUCUGGUCCAGGCAGGCAUCAAAAGAAAUAGUCUUGCGCUCAACCAGAAAGUCUGUAAUCAUUUUAAGGGUA the figure was 0.12; with GUUAACGGUCAUAGGCCAUGGAAACUAGGAGCACCAUUUCGCUGCCAGUGAAGAAAUGAACAAGGAAAAUCUGGGCCAGGCAGGCAUCAAAAGAAAUAGUCUUGCACUCAACCAGAAAGUCUGUAAUCAUUUUAAGGGUA, 0.04. As to GUUAACGGUCAUAGGCCAUGGAAACUAGGAGCACCAUUUCGCUGCCAGUGAAGAAAUGAACAAGGAAAAUCUGGGCCAGGCAGGCAUCAAAAGAAAUAGUCUUGCGCUCAACCAGGAAGUCUGUAAUCAUUUUAAGGGUA, the self-cleavage was found to be 0.61. For GUUAACGGUCAUAGGCCAUGGAAACUAGGAGCACCAUUUCGCUGCCAGUGAAGAAAUGAACAAGGAAAAUCUGGGCCAGGCAGGCAUCAAAAGAAAUAGUCUUGCGCUCAACCAGAAAGUCUGUAAUCAUUUUAAGAGUA, the self-cleavage came out at 0.96. With GUUAACGGUCAUAGGCCAUGGAAACUAGGAGCACCAUUUCGCUGCCAGUGAAGAAAUGAACAAGGAAAAUCUGGGCCAGGCAGGCAUCAAAAGAAAUAGUCUUGCGCUCAACCAGAAAGUCUGUAAUCAUUCUAAGGGUA the figure was 1.53. Regarding GUUAACGGUCAUAGGCCAUGGAAACUAGGAGCACCAUUUCGCUGCCAGUGAAGAAAUGAACAAGGAAAAUCUGGGCCAGGCAGGCAUCAAAAGAAAUAGUCUUGCGCUCAACCAGAAAGUCUGUAAUCAUUAUAAGGGUA, the self-cleavage amounted to 1.85. With GUUAACGGUCAUAGGCCAUGGAAACUAGGAGCACCAUUUCGCUGCCAGUGAAGAAAUGAACAAGGAAAAUCUGGGCCAGGCAGGCAUCAAAAGAAAUAGUCUUGCGCUCAACCAGAACGUCUGUAAUCAUUUUAAGGGUA the figure was 0.2; with GUUAACGGUCAUAGGCCAUGGAAACUAGGAGCACCAUUUCGCUGCCAGUGAAGAAAUGAACAAGGAAAAUCUGGGCUAGGCAGGCAUCAAAAGAAAUAGUCUUGCGCUCAACCAGAAAGUCUGUAAUCAUUUUAAGGGUA, 1.43. GUUAACGGUCAUAGGCCAUGGAAACUAGGAGCACCAUUUCGCUGCCAGUGAAGAAAUGAACAAGGAAAAUCUGAGCCAGGCAGGCAUCAAAAGAAAUAGUCUUGCGCUCAACCAGAAAGUCUGUAAUCAUUUUAAGGGUA: the self-cleavage was 0.36. As for GUUAACGGUCAUAGGCCAUGGAAACUAGGAGCACCAUUUCGCUGCCAGUGAAGAAAUGAACAAGGAAAAUCUGUGCCAGGCAGGCAUCAAAAGAAAUAGUCUUGCGCUCAACCAGAAAGUCUGUAAUCAUUUUAAGGGUA, the figure is 0.24.

For GUUAACGGUCAUAGGCCAUGGAAACUAGGAGCACCAUUUCGCUGCCAGUGAAGAAAUGAACAAUGAAAAUCUGGGCCAGGCAGGCAUCUAAAGAAAUAGUCUUGCGCUCAACCAGAAAGUCUGUAAUCAUUUUAAGGGUA, the self-cleavage was determined as 0.92. As for GUUAACGGUCAUAGGCCAUGGAAACUAGGAGCACCAUUUCGCUGCCAGUGAAGAAAUGAACAAGGAAAAUCUGGGCCAGGCAGGCAUCAAAAGAAAUAGUCUUGCGCUCAACCGGAAAGUCUGUAAUCAUUUUAAGGGUA, the figure is 0.31.

GUUAACGGUCAUAGGCCAUGGAAACUAGGAGCACCAUUUCGCUGCCAGUGAAGAAAUGAACAAGGAAAAUCUGGGCCAGGCAGGCAUCAAAAGAAAUAGUCUUGCGCUCAACCUGAAAGUCUGUAAUCAUUUUAAGGGUA: the self-cleavage was determined as 0.1. As for GUUAACGGUCAUAGGCCAUGGAAACUAGGAGCACCAUUUCGCUGCCAGUGAAGAAAUGAACAAGGAAAAUCUGGGCCAGGCAGGCAUCAAAAGAAACAGUCUUGCGCUCAACCAGAAAGUCUGUAAUCAUUUUAAGGGUA, the figure is 1.63; as for GUUAACGGUCAUAGGCCAUGGAAACUAGGAGCACCAUUUCGCUGCCAGUGAAGAAAUGAACAAGGAAAAUCUGGGCCAGGCAGGCAUCAAAAGAAAUAGUCUUGCGCUCAACCAGAAAGUCUGUAAUCCUUUUAAGGGUA, 1.8; as for GUUAACGGUCAUAGGCCAUGGAAACUAGGAGCACCAUUUCGCUGCCAGUGAAGAAAUGAACAAGGAAAAUCUGGGCCAGGCAGGCAUCAAAAGAAAUAGUCUUGCGCUCAACCAGAAAGUCUGUAAUCGUUUUAAGGGUA, 1.14.

Turning to GUUAACGGUCAUAGGCCAUGGAAACUAGGAGCACCAUUUCGCUGCCAGUGAAGAAAUGAACAAGGAAAAUCUGGGCCAGGCAGGCAUCAAAAGAAAUAGUCUUGCGCUCAACCAGAAAGUCUGUAAUCUUUUUAAGGGUA, the self-cleavage was determined as 0.99. GUUAACGGUCAUAGGCCAUGGAAACUAGGAGCACCAUUUCGCUGCCAGUGAAGAAAUGAACAAGGAAAAUCUGGGCCAGGCAGGCAUCAAAAGAAAUAGUCUUGCGCUCAACCAGAAAGUCUGUACUCAUUUUAAGGGUA: the self-cleavage is 1.16. GUUAACGGUCAUAGGCCAUGGAAACUAGGAGCACCAUUUCGCUGCCAGUGAAGAAAUGAACAAGGAAAAUCUGGGCCAGGCAGGCAUCAAAAGAAAUAGUCUUGCGCUCAACCAGAAAGUCUGUAAUCAUAUUAAGGGUA: the self-cleavage is 0.6. Regarding GUUAACGGUCAUAGGCCAUGGAAACUAGGAGCACCAUUUCGCUGCCAGUGAAGAAAUGAACAAGGAAAAUCUGGGCCAGGCAGGCAUCAAAAGAAAUAGUCUUGCGCUCAACCAGAAAGUCUGUGAUCAUUUUAAGGGUA, the self-cleavage turned out to be 0.28.

As for GUUAACGGUCAUAGGCCAUGGAAACUAGGAGCACCAUUUCGCUGCCAGUGAAGAAAUGAACAAGGAAAAUCUGGGCCAGGCAGGCAUCAAAAGAAAUAGUCUUGCGCUCAACCAGAAAGUCUGUUAUCAUUUUAAGGGUA, the self-cleavage is 2.92. As for GUUAACGGUCAUAGGCCAUGGAAACUAGGAGCACCAUUUCGCUGCCAGUGAAGAAAUGAACAAGGAAAAUCUGGGCCAGGCAGGCAUCAAAAGAAAUAGUCUUGCGCUCAACCAGAAAGUCUGCAAUCAUUUUAAGGGUA, the figure is 1.57. As for GUUAACGGUCAUAGGCCAUGGAAACUAGGAGCACCAUUUCGCUGCCAGUGAAGAAAUGAACAAGGAAAAUCCGGGCCAGGCAGGCAUCAAAAGAAAUAGUCUUGCGCUCAACCAGAAAGUCUGUAAUCAUUUUAAGGGUA, the figure is 0.27; as for GUUAACGGUCAUAGGCCAUGGAAACUAGGAGCACCAUUUCGCUGCCAGUGAAGAAAUGAACAAGGAAAAUCAGGGCCAGGCAGGCAUCAAAAGAAAUAGUCUUGCGCUCAACCAGAAAGUCUGUAAUCAUUUUAAGGGUA, 0.35; as for GUUAACGGUCAUAGGCCAUGGAAACUAGGAGCACCAUUUCGCUGCCAGUGAAGAAAUGAACAAGGAAAACCUGGGCCAGGCAGGCAUCAAAAGAAAUAGUCUUGCGCUCAACCAGAAAGUCUGUAAUCAUUUUAAGGGUA, 0.57. With GUUAACGGUCAUAGGCCAUGGAAACUAGGAGCACCAUUUCGCUGCCAGUGAAGAAAUGAACAAGGAAAAUCUGGGCCAGGCAGGCAUCAAAAGAAAUAGUCUUGCGCUCAACCAGAAAGUCUGUAAUCAUUUUAUGGGUA the figure was 1.28; with GUUAACGGUCAUAGGCCAUGGAAACUAGGAGCACCAUUUCGCUGCCAGUGAAGAAAUGAACAAGGAAAAUCUGGGCCAGGCAGGCAUCAAAAGUAAUAGUCUUGCGCUCAACCAGAAAGUCUGUAAUCAUUUUAAGGGUA, 1.61.

In the case of GUUAACGGUCAUAGGCCAUGGAAACUAGGAGCACCAUUUCGCUGCCAGUGAAGAAAUGAACAAGGAAAAUCUGGGCCAGGCAGGCAUCAAAAGAACUAGUCUUGCGCUCAACCAGAAAGUCUGUAAUCAUUUUAAGGGUA, the self-cleavage was 0.76.
